Positions of bridges follow the written chain, without caps; N, C: chain ends. No end group written: not given here.
T1: hu-IL-2Rβ subunit (human, UniProt P14784 27-240, limits assumed)
T1 construct: also called human interleukin-2 receptor subunit β; CD122
T1 sequence (looked up): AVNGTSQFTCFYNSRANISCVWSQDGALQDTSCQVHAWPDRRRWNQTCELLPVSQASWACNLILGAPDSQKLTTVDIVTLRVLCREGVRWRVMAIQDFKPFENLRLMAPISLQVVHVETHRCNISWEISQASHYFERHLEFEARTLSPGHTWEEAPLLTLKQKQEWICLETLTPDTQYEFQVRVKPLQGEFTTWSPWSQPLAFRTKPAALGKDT


Each binder was assayed against T1, hu-IL-2Rβ subunit (assay: phage ELISA competition assay).

Q: With WYPCEFAQLGELCDLLPFPYPA [SEQ ID NO 449] as the binder, how does the IC50 read?
A: < 100 µM

Q: How did the IC50 turn out when WRILWMQQCWRSHVVNQCAL (not fully specified (bridges); cysteine pairing not given here) [SEQ ID NO 439] was run?
A: < 100 µM

Q: For VDEFYPCSMAGLGELCDLERQN [SEQ ID NO 429], which IC50 is on record?
A: < 100 µM

Q: How did the IC50 turn out when WTGWSAFYPCSIANLGELCDLD [SEQ ID NO 469] was run?
A: < 100 µM

Q: For RPPWYPCWMARLGEVCDMDIML [SEQ ID NO 431], which IC50 is on record?
A: < 100 µM

Q: RDWWLPCEFALIGELCDLERSW [SEQ ID NO 478] was tested. Which IC50 did it give?
A: < 100 µM

Q: For PTLITWYDCLFAEVGELCDM [SEQ ID NO 454], which IC50 is on record?
A: < 100 µM

Q: RLVYDCLFAQVGDLCEVIS [SEQ ID NO 438] was tested. Which IC50 did it give?
A: < 100 µM

Q: How did the IC50 turn out when AQVRREWYPCWMAQLGELCDLT (disulfide 10-19 (inferred)) [SEQ ID NO 109] was run?
A: < 100 µM

Q: Which IC50 does the source give for HQGFYSCRLARLGELCDLDTGW [SEQ ID NO 428] here?
A: < 100 µM

Q: Which IC50 does the source give for ARTWWPCWRAKLGELCDLVVPE [SEQ ID NO 427] here?
A: < 100 µM

Q: Which IC50 does the source give for GRQQKGWYPCWLAQLGELCDME [SEQ ID NO 107] here?
A: < 100 µM

Q: Which IC50 does the source give for WFPCWMAKVGDLCDVDEHQDPS [SEQ ID NO 458] here?
A: < 100 µM

Q: With FYPCWAAHLGDLCDLEYQEAGP [SEQ ID NO 421] as the binder, how does the IC50 read?
A: < 100 µM

Q: For NDHTAWWPCYFAQVGDLCDLV [SEQ ID NO 475], which IC50 is on record?
A: < 100 µM

Q: WYPCWIAQVGELCDLDEVSHGR [SEQ ID NO 440] was tested. Which IC50 did it give?
A: < 100 µM

Q: For TEMWYPCWMAYQGELCDLDMTY [SEQ ID NO 426], which IC50 is on record?
A: < 100 µM

Q: With KGSWQPCWFAKLGELCDLHPTS [SEQ ID NO 433] as the binder, how does the IC50 read?
A: < 100 µM

Q: How did the IC50 turn out when WWPCWIADLGELCDLEGPPRGR [SEQ ID NO 453] was run?
A: < 100 µM

Q: For WGGRYWCWMAKLGDLCDLEDEW [SEQ ID NO 436], which IC50 is on record?
A: < 100 µM

Q: FYPCWIAFVGELCDLE [SEQ ID NO 467] was tested. Which IC50 did it give?
A: < 100 µM

Q: KWAWNPCYIARLGELCDLVEPE [SEQ ID NO 452] was tested. Which IC50 did it give?
A: < 100 µM

Q: With WTPCWIAQLGELCDLEGRHGTV [SEQ ID NO 419] as the binder, how does the IC50 read?
A: < 100 µM

Q: With QTKLEGWYPCWMAQLGELCDLD [SEQ ID NO 104] as the binder, how does the IC50 read?
A: < 100 µM

Q: With WLPCWLAPLGDLCDMDMSAVMN [SEQ ID NO 422] as the binder, how does the IC50 read?
A: < 100 µM

Q: Which IC50 does the source give for WGRKEQWLPCWKAQLGELCDLE [SEQ ID NO 105] here?
A: < 100 µM

Q: Which IC50 does the source give for QTWYLPCWMAKLGELCDLGERD [SEQ ID NO 434] here?
A: < 100 µM

Q: With RWDYWPCYIAQVGELCDLEVYE [SEQ ID NO 463] as the binder, how does the IC50 read?
A: < 100 µM

Q: With AQVWYPCWLAKVGELCDLDQWN [SEQ ID NO 456] as the binder, how does the IC50 read?
A: < 100 µM

Q: For ERRWYPCWLASVGELCDLDMGD [SEQ ID NO 461], which IC50 is on record?
A: < 100 µM

Q: Which IC50 does the source give for SLAHRSWYPCWLAQVGELCDLD [SEQ ID NO 464] here?
A: < 100 µM

Q: Which IC50 does the source give for WWPCWIAQVGELCDLEEESRES [SEQ ID NO 451] here?
A: < 100 µM

Q: With QNASKGWYPCWIAHVGELCDWD [SEQ ID NO 465] as the binder, how does the IC50 read?
A: < 100 µM

Q: VPRANAWHPCWMAQLGELCDLE [SEQ ID NO 106] was tested. Which IC50 did it give?
A: < 100 µM

Q: For AWDWYPCSVAALGEICDLDIQD [SEQ ID NO 430], which IC50 is on record?
A: < 100 µM

Q: For MFRYYPCWIASIGELCDLEWGV [SEQ ID NO 460], which IC50 is on record?
A: < 100 µM

Q: FGGKMDWYPCWIANLGELCDLK [SEQ ID NO 457] was tested. Which IC50 did it give?
A: < 100 µM

Q: WWPCDFAQIGELCDLGPRFTGE [SEQ ID NO 477] was tested. Which IC50 did it give?
A: < 100 µM

Q: Which IC50 does the source give for AEYSGRYDCYIAKVGELCDI [SEQ ID NO 445] here?
A: < 100 µM

Q: For ARTQGWYDCLFAQVGELCDL [SEQ ID NO 442], which IC50 is on record?
A: < 100 µM

Q: Which IC50 does the source give for HRWYPCWLAHLGELCDLDPMS [SEQ ID NO 466] here?
A: < 100 µM

Q: Which IC50 does the source give for NRWWHPCWMARVGELCDLEPDA [SEQ ID NO 447] here?
A: < 100 µM

Q: With LPCWIAQLGDLCDLEPEPSPE [SEQ ID NO 420] as the binder, how does the IC50 read?
A: < 100 µM

Q: How did the IC50 turn out when WWPCWIAQVGELCDLDGPGRPT (disulfide 4-13 (inferred)) [SEQ ID NO 437] was run?
A: < 100 µM

Q: How did the IC50 turn out when WLNRHLFNPCWMARLGELCDLE [SEQ ID NO 108] was run?
A: < 100 µM

Q: For MGDSSSWFPCWMAQLGELCDME [SEQ ID NO 459], which IC50 is on record?
A: < 100 µM

Q: For EGHWYPCWIAQLGELCDLDW [SEQ ID NO 468], which IC50 is on record?
A: < 100 µM

Q: Which IC50 does the source give for EISNWFLDCMFADVGDLCDL [SEQ ID NO 455] here?
A: < 100 µM

Q: How did the IC50 turn out when WRPCWMAHLGDLCDLEMANENP [SEQ ID NO 423] was run?
A: < 100 µM

Q: How did the IC50 turn out when SYMHDCFMAQVGDLCDRFIS [SEQ ID NO 450] was run?
A: < 100 µM

Q: With CYMHDCFMAQVGDLCDRFIS [SEQ ID NO 497] as the binder, how does the IC50 read?
A: < 100 µM

Q: WYPCWMALLGELCDQE [SEQ ID NO 81] was tested. Which IC50 did it give?
A: < 100 µM

Q: TNGVLDWWPCWMAQVGELCDLD (not fully specified (bridges); cysteine pairing not given here) [SEQ ID NO 471] was tested. Which IC50 did it give?
A: < 100 µM

Q: How did the IC50 turn out when AYYPCELAQLGELCDLYNI [SEQ ID NO 473] was run?
A: < 100 µM

Q: With WWPCEIAQIGELCDLEWVRHAE [SEQ ID NO 476] as the binder, how does the IC50 read?
A: < 100 µM

Q: For TGEWWPCWVAEVGELCDLERGP (not fully specified (bridges); cysteine pairing not given here) [SEQ ID NO 441], which IC50 is on record?
A: < 100 µM

Q: Which IC50 does the source give for WYPCWLAQLGEVCDLDDGGGVF [SEQ ID NO 424] here?
A: < 100 µM

Q: EPRWYPCWMAQMGELCDMEMSD [SEQ ID NO 435] was tested. Which IC50 did it give?
A: < 100 µM

Q: With SWRFLWQDCGRAHVGELCDL [SEQ ID NO 446] as the binder, how does the IC50 read?
A: < 100 µM

Q: How did the IC50 turn out when WEKLQNWYPCWIAQMGELCDLE (not fully specified (bridges); cysteine pairing not given here) [SEQ ID NO 470] was run?
A: < 100 µM

Q: FHPCWRALLGELCDLETALGPS [SEQ ID NO 443] was tested. Which IC50 did it give?
A: < 100 µM

Q: WWPCWVAKLGELCDLEGDASRV [SEQ ID NO 448] was tested. Which IC50 did it give?
A: < 100 µM

Q: For LQIRKLWACRIDLVGPFCLL [SEQ ID NO 444], which IC50 is on record?
A: < 100 µM

Q: SQRWYPCWVAHLGELCDLEGVV [SEQ ID NO 432] was tested. Which IC50 did it give?
A: < 100 µM
